A protein production outcome set (Wang et al. 2014)

Test: label from the status in PepcDB records

Sequence | protein production
MINLVEFNLFLDLLGSALLLSLPWLLLGIIISSTFLIWTDEQKWVANFPRNRLLSSLVGSALGFLLPLGAFGSVPLVRRLLLQGAPIPLAVSFLVAAPTLNIFAIVRVLSSRQSQYGLIFLCISCSWLMAIVMGLVFSTYRLARQQAEDEGETALLNIPLLRSGALIILQSSMEASPRQGGLVFASGVNPVADFSWRQKLHLFGRNIIEEFQEFGGVLVIGTAIACGIVFFLPQAWLLQWAGLGPVRQTVLMMGWSFILPLGNFSNPDLLAPLGEQLWRGSMVAFLLWGSLFNLQTIGLWLVTLRLRPLSYLVVLVGLSVFLFAMVTNYYLS | failed
MINMKPQYYLGMMSGTSLDGVDIVLVDFSQDPQLILSDFFPMPEDLREKLTTLIQVGETTLQNLGELDHKLALLYSDCVNAFLQKNTFLPNQIQAIGCHGQTVWHSPNSQFPFTMQLGDMNLLAAKTGISVIGDFRRKDMAWGGQGAPLVPAFHEAVFSNSNFATAVLNIGGISNVSILFPNQAVIGFDTGPGNTLLDQWIEKHQGLRYDENGEWAAKGNVNKVLLDELLNEPFFSLPAPKSTGRELFNLVWLNHKIAKIREKLTALSVEMSFRPEDVQATLVELTVTSIVNALNQLQTDLPKRLLVCGGGAKNSLIMRGLHDNLLDWQVSTTTEQGFDIDYVEAAAFAWLAYCRINNLPANLPSVTGAKSAVSLGAIFPKD | failed
MINQNATYMEESAQSAVDNFGLGFNLGNTLDANGCGTGKPVATYETFWGQPETTQDMMTFLMQNGFNAVRIPVTWYEHMDAEGNVDEAWMMRVKAIVEYAMNAGLYAIVNVHHDTAAGSGAWIKADTDVYAATKEKFKKLWTQIANALADYDQHLLFEGYNEMLDGNNSWDEPQKASGYEALNNYAQDFVDAVRATGGNNATRNLIVNTYAAAKGENVLNNFMLPTDAVNNHLIVQVHSYDPWNFFNTKTTWDSECHNTLTEIFSALSKKFTTIPYIIGEYGTHGESDISVSKSSPAEKIKLAADQAADMVKLAKDHHSATFYWMSIFDGSDRIQPQWSLPTVVEAMQEAYNN | not failed
MIPDLVPVSLTPVTVVPNTVNTMTATIENQGNKDSTSFNVSLLVDGIVVDTQTVTSLESENSTNVDFHWTLDGTANSYTLTVNVDPENAVNEGNESNNTLTALVGTLEHHHHHH | not failed
MIPEHLSIYTAYNANIDAIVKLNQETIQNLINAFDPDEVKRRIEEYPREINEPIDFVARLVHTLKLGKPAAVPLVNEKMNEWFDKTFRYEEERLGGQAGIIANTLAGLKIRKVIAYTPFLPKRLAELFKKGVLYPVVENGELQFKPIQEAYREGDPLKINRIFEFRKGLKFKLGDETIEIPNSGRFIVSARFESISRIETREDIKPFLGEIGKEVDGAIFSGYQGLRTKYSDGKDANYYLRRAKEDIIEFKEKDVKIHVEFASVQDRKLRKKIITNILPFVDSVGIDEAEIAQILSVLGYRELADRIFTYNRLEDSILGGMIILDELNFEILQVHTTYYLMYITHRDNPLSEEELAKSLEFGTTLAAARASLGDIRGPDDYKVGLKVPFNERSEYVKLRFEEAKSRLRMREYKVVVIPTRLVQNPVLTVGLGDTISAGAFLTYLEFLKRH | not failed
MIPLHRLCRALALLMGFGPTLSALAASAPEGLPLLGTGEGLEVRGCETLVLRGGQVVRLAEIIGPEAEGAARAQAALGALVVGHSLRLYGESPLADRYGRLHAHGVTEEGRWVQGALVEAGLARVVIREGESALSGALLALEERARRAGRGLWPPASAASPPPGALAATGDGFQVVEGRIVSAARAGRRIYLNFGADWRSDFTVSLSEAMLARLLATGRDPLAWAGRRVRVRGWVTRRNGPLLDLPHPMALEGPLDGPPFLSPKENLDLEYPGN | failed
MIQALLQRYEKKIERRKLEKRTAFGAFAGRIGLVSNLFLFVSKFMIGLLSGSVSIMADAINSLSDTISSVLTLVGFYIAGKPADKEHPYGHERFEYISGMLVSLVITFIGFEFLTTSVDRILHPESIKVTPILFAVLALSIGIKIWQGLFYKKVSAKIDSQALVASAKDSFNDVYTTLAVLISAFIEGVTGLRIDGYIGFLIAAYIIYSGLQLIREFINELMGMRPSQTEIDEMKNVLSKMETIVGYHDLLIHNYGPSQTFASVHIEIDDRWDLNKAHQTIDAIEAKFKEELDVNLVCHIDPVNLYDPTQQFVHQTIKKIIRSFDASLKVHDIRLVTHGEEPKILFDLVLPTESKLSEFELGVEIQRQVYEKIGRYKVEITFDHTYLLQ | failed
MIQCILVMLGGGIGAVIRGFVTDVFNQKFNTSLPIPTLLINVVGSFCIGLLMGMCLNINWINPFIIVGILGGLTTFSTLSSELVKLLTTPKQINLFILYSILQYGVSFVACLLGYYLF | failed
MIQLKNVGITLSGKGYERFSLENINLEVNGEKVIILGPNGSGKTTLLRAISGLLPYSGNIFINGMEVRKIRNYIRYSTNLPEAYEIGVTVNDIVYLYEELKGLDRDLFLEMLKALKLGEEILRRKLYKLSAGQSVLVRTSLALASQPEIVGLDEPFENVDAARRHVISRYIKEYGKEGILVTHELDMLNLYKEYKAYFLVGNRLQGPISVSELLESSIVEGERNDALLVLDIMDKKVSIVKGDLGMKFGALGSLNRIYGIIGA | not failed
MIQQLLVTFPPMLFGAQALLTLLLIKGDICPGQRGRLHKMLPAIGVLWLAVASLRIEAFMVVFAIFYFYSQVQTKKTREKGPLWALHLANGLAFAYVSIQVFEQPNWPASAAMAVMIFFLGASFSQLLLTIARSRLQAFHRILPVTGIVSGMLLVLATLFSSYQLDEATLASATQPILISLALLISTIVVWCWHIFTHKAPEKVQLSIALLLALASMTSLQGLFALAV | failed
MIRAVFFDFVGTLLSVEGEAKTHLKIMEEVLGDYPLNPKTLLDEYEKLTREAFSNYAGKPYRPIRDIEEEVMRKLAEKYGFKYPENFWEIHLRMHQRYGELYPEVVEVLKSLKGKYHVGMITDSDTEYLMAHLDALGIKDLFDSITTSEEAGFFKPHPRIFELALKKAGVKGEEAVYVGDNPVKDCGGSKNLGMTSILLDRKGEKREFWDKCDFIVSDLREVIKIVDELNGQ | not failed
MIRFQPITTSDVQHYKFMEELLVESFPPEEYRELEHLREYTDRIGNFHNNIIFDDDLPIGFITYWDFDEFYYVEHFATNPALRNGGYGKRTLEHLCEFLKRPIVLEVERPVEEMAKRRINFYQRHGFTLWEKDYYQPPYKEGDDFLPMYLMVHG | failed
MIRIDSVTKRYPDGTVAVDRLSLEIPDRSITVLVGPSGCGKTTTLRMINRMVEPSEGTILLDGADITKQPVNTLRRSMGYVIQNAGLFQHRTIVDNIATVPRMLGWGKERARSRARELMERVGLDASLARRYPYQLSGGQQQRVGVARALASDPPVLLMDEPFSAVDPVVRKGLQEELLRIQDELGKTIVFVTHDIDEAIRLGTMVAVMRTGGHLAQFAPPAELLSAPADAFVEDFLGTDRGIRRLSFFPSAGLELLTTPVVAIDSTAEQIAARGTPDVPYLLVTDVDGKALGWSEPKDLTAGKVVPERLLPYGRPFESGKDSLRAALDCAVLSPTGWAVAVDGTGRVVGVVSQETIGEAIRGAHAERRKADLAGLEHHHHHH | not failed
MIRISIALLDHQEQLPNMFENLSEDLRKALNEAGYIKPTRVQEVVIPELMNGKSVIVQAKTGSGKTAAYVIPILERNSTALILSPTRELATQILDEIKKLGKYKQIDVSLIIGGMSYDDQRQSKIVVGTPGRLLDLWSKGKIDFSGYDFVIVDEADRMLDMGFIDDIRMILNHCNAKIAGFFSATIPDEIMTLAKEFSKDLREIVLDEYKPVEEVKQKFVKVRNDWNDKVSKLLEEINGEKILVFARTRDRARKLYYLLKGKGVNVGLLSGDMPQSVRLKNFYGFKKGKYNVLVATDLASRGIDIIDVNKVINFDIPRDVETYIHRVGRTGRMGRVGQAITFYTFREADMIKRINNLLAI | failed
MIRKWDTKDTAPLLALWLDSTIHAHPFISESYWRDSVAVVRDVYLPAASTWVWEQDGELKGFVSVLDSRFVGALFVAPGATRQGIGRALLDEVKQHYAWLSLEVYQKNESAVSFYHAQGFRIEDCAWQDDTQHPTWIMRWPA | not failed
MIRMTVKVPHPLRVVAVSGGMQRPSKSVALAEHLLALIAEQLPCERHLVEIGALAPQFAGAPWRSHLPGSVEQALALVEQADVLVVATPVYRGSFTGLFKHFFDFIDQDALVDTPVLLAATGGSDRHALMIDHQLRPLFSFFQARTLPLGVYATDRDFLDYRVHSQALAERASLAVQRALPLIELTRHARSITAQNVAAA | failed
MIRPEYLRVLRKIYDRLKNEKVNWVVTGSLSFALQGVPVEVHDIDIQTDEEGAYEIERIFSEFVSKKVRFSSTEKICSHFGELIIDGIKVEIMGDIRKRLEDGTWEDPVDLNKYKRFVETHGMKIPVLSLEYEYQAYLKLGRVEKAETLRKWLNERKG | not failed
MIRPTVQENFSRYADCIAACNAAAAACLKCAAACLEEPDTRKMTRCIALDMDCAGIANLAASYMLRNSEFAPLVCEDCAEVCKWCKEECERYDHWHCQECAKACAACMEMCLKMTA | failed
MIRVLFAFIILLLSVFLGIQLNKDPGYVLIAINNWTIETTLWVSVFGLFFLFFLIYGLVQFCNKITRMPGMVNKWHSRRLAQKAQATTRKGLIEYSEGYWQKAKNHLIQALPNTDTPLLNYLTAARAAQKMGDSKLRDHYLREAQQSMPEAKIAVELTQAQLQLANHQWEQALATLKHLQDLAPRHPYVLKLLMNLYEEIKDWQQLIALLPDLKKNHIISDQAFEQLQKNTYLQAMIDLAKHNQSDGITKLYQTLPKTLVNDTAITAEYARFLIRNQDYDQAEYHLKRCLRKELDNRLIELYSLLPCEENQLLFAESLLKKNPHSAALYLCLGRMCLSRHLWGKAKHYLEQSIELNPTPVAFIELGKLHEKLNDPLSSGSCYKKGLELITKDELS | failed
MISAHCNLRLLCSSDSSASASQVAGTTEVVENLVTNDNSPNIPEAIDRLFSDIANINRESMAEIADIQIEEMAVNLWNWALTIGGGWLVNEEQKIRLHYVACKLLSMCEASFASEQSIQRLIMMNMRIGKEWLDAGNFLIADECFQAAVASLEQLYVKLIQRSSPEADLTMEKITVESDHFRVLSYQAESAVAQGDFQRASMCVLQCKDMLMRLPQMTSSLHHLCYNFGVETQKNNKYEESSFWLSQSYDIGKMDKKSTGPEMLAKVLRLLATNYLDWDDTKYYDKALNAVNLANKEHLSSPGLFLKMKILLKGETSNEELLEAVMEILHLDMPLDFCLNIAKLLMDHERESVGFHFLTIIHERFKSSENIGKVLILHTDMLLQRKEELLAKEKIEEIFLAHQTGRQLTAESMNWLHNILWRQAASSFEVQNYTDALQWYYYSLRFYSTDEMDLDFTKLQRNMACCYLNLQQLDKAKEAVAEAERHDPRNVFTQFYIFKIAVIEGNSERALQAIITLENILTDEESEDNDLVAERGSPTMLLSLAAQFALENGQQIVAEKALEYLAQHSEDQEQVLTAVKCLLRFLLPKIAEMPESEDKKKEMDRLLTCLNRAFVKLSQPFGEEALSLESRANEAQWFRKTAWNLAVQCDKDPVMMREFFILSYKMSQFCPSDQVILIARKTCLLMAVAVDLEQGRKASTAFEQTMFLSRALEEIQTCNDIHNFLKQTGTFSNDSCEKLLLLYEFEVRAKLNDPLLESFLESVWELPHLETKTFETIAIIAMEKPAHYPLIALKALKKALLLYKKEEPIDISQYSKCMHNLVNLSVPDGASNVELCPLEEVWGYFEDALSHISRTKDYPEMEILWLMVKSWNTGVLMFSRSKYASAEKWCGLALRFLNHLTSFKESYETQMNMLYSQLVEALSNNKGPVFHEHGYWSKSD | failed
